# Data reported in US20220010021A1 (Sanofi, published 2022).
# Residue numbers refer to the chain shown, from its start. Numbers in names are those of the source.
# T1: human beta-Klotho (KLB) (human, UniProt Q86Z14 53-997)
# T1 construct: bought protein, used as analyte in the off-rate screening; also called human KLB; β-Klotho
# T1 sequence (looked up): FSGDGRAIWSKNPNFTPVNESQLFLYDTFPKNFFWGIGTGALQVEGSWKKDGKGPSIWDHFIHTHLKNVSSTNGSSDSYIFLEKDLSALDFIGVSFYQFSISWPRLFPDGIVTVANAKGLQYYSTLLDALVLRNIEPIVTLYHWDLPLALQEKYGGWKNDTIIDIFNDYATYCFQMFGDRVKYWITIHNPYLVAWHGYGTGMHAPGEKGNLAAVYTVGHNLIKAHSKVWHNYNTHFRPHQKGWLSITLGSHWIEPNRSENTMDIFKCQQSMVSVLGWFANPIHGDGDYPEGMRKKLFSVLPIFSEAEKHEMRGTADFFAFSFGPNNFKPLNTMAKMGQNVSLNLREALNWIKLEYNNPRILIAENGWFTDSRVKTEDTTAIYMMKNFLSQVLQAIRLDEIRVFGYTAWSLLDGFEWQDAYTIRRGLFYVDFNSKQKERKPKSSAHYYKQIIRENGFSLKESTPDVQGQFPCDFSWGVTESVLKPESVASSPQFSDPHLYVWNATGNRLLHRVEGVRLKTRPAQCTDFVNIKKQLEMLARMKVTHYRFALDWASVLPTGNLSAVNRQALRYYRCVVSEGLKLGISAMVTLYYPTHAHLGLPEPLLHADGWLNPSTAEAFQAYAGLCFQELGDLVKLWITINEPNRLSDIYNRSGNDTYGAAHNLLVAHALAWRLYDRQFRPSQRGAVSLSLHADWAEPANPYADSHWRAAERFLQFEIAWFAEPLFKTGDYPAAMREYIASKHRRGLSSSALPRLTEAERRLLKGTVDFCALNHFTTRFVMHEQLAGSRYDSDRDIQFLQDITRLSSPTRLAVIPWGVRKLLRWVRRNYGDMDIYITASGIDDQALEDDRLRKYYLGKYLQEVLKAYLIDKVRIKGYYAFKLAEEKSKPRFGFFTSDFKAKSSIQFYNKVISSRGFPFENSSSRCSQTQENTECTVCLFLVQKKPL
# T2: human beta-Klotho (KLB) (human, UniProt Q86Z14 53-997)
# T2 construct: bought protein; also called human KLB
# T2 sequence (looked up): T1 sequence (looked up)
# B1: 16H7 variant with light chain substitution S51D (antibody, V domains shown)
# VH: not shown
# VL: SYVLTQPPSVSVAPGQTARITCGGNNIGSESVHWYQQKPGQAPVLVVYDDDDRPSGIPERFSGSNSGNTATLTISRVEAGDEADYYCQVWDGNSDHVVFGGGTKLTVLG
# B2: 16H7 variant with light chain substitution S51V (antibody, V domains shown)
# VH: not shown
# VL: B1 VL with D51V
# B3: 16H7 variant with light chain substitution S55E (antibody, V domains shown)
# VH: not shown
# VL: B1 VL with D51S, S55E
# B4: 16H7 variant with light chain substitution S55R (antibody, V domains shown)
# VH: not shown
# VL: B1 VL with D51S, S55R
# B5: 16H7 variant with light chain substitution V98A (antibody, V domains shown)
# VH: not shown
# VL: B1 VL with D51S, V98A
# B6: Ab0188 (antibody, IgG4, V domains shown)
# VH: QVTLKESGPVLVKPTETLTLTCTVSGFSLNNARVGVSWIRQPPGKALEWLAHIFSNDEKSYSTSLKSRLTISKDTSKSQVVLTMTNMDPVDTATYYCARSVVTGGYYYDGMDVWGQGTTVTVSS
# VL: B1 VL with D49Y, D51S
# notes: IgG4 PE
# B7: 16H7 variant with light chain substitution V98Y (antibody, V domains shown)
# VH: not shown
# VL: B1 VL with D51S, V98Y
# B8: 16H7 variant with light chain substitution S55C (antibody, V domains shown)
# VH: not shown
# VL: B1 VL with D51S, S55C
# B9: Ab0187 (antibody, IgG4, V domains shown)
# VH: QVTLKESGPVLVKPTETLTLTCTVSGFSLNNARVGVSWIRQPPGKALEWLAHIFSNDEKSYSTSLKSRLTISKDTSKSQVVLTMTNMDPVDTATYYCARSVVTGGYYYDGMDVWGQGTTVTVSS
# VL: B1 VL with N25S, D51S
# notes: IgG4 PE
# B10: 16H7 variant with light chain substitution S55G (antibody, V domains shown)
# VH: not shown
# VL: B1 VL with D51S, S55G
# B11: 16H7 variant with light chain substitution S55I (antibody, V domains shown)
# VH: not shown
# VL: B1 VL with D51S, S55I
# B12: 16H7 variant with light chain substitution S55Y (antibody, V domains shown)
# VH: not shown
# VL: B1 VL with D51S, S55Y
# B13: 16H7 variant with light chain substitution S55F (antibody, V domains shown)
# VH: not shown
# VL: B1 VL with D51S, S55F
# B14: 16H7 variant with light chain substitution S55T (antibody, V domains shown)
# VH: not shown
# VL: B1 VL with D51S, S55T
# B15: 16H7 variant with light chain substitution V98T (antibody, V domains shown)
# VH: not shown
# VL: B1 VL with D51S, V98T
# B16: 16H7 variant with light chain substitution V98H (antibody, V domains shown)
# VH: not shown
# VL: B1 VL with D51S, V98H
# B17: 16H7 variant with light chain substitution V98L (antibody, V domains shown)
# VH: not shown
# VL: B1 VL with D51S, V98L
# B18: 16H7 variant with light chain substitution S51E (antibody, V domains shown)
# VH: not shown
# VL: B1 VL with D51E
# B19: 16H7 variant with light chain substitution S55D (antibody, V domains shown)
# VH: not shown
# VL: B1 VL with D51S, S55D
# B20: 16H7 variant with light chain substitution S55V (antibody, V domains shown)
# VH: not shown
# VL: B1 VL with D51S, S55V
# B21: Ab0190 (antibody, IgG4, V domains shown)
# VH: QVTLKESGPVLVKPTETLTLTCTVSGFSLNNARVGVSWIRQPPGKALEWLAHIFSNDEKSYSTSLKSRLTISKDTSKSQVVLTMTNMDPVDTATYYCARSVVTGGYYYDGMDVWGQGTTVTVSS
# VL: B1 VL with D51S, D91T
# notes: IgG4 PE
# B22: Ab0182 (antibody, IgG4, V domains shown)
# VH: not shown
# VL: B1 VL with D50E, D51S
# notes: IgG4 PE
# B23: 16H7 variant with light chain substitution S55N (antibody, V domains shown)
# VH: not shown
# VL: B1 VL with D51S, S55N
# B24: 16H7 variant with light chain substitution S55P (antibody, V domains shown)
# VH: not shown
# VL: B1 VL with D51S, S55P
# B25: 16H7 variant with light chain substitution V98K (antibody, V domains shown)
# VH: not shown
# VL: B1 VL with D51S, V98K
# B26: 16H7 variant with light chain substitution V98W (antibody, V domains shown)
# VH: not shown
# VL: B1 VL with D51S, V98W
# B27: Ab0189 (antibody, IgG4, V domains shown)
# VH: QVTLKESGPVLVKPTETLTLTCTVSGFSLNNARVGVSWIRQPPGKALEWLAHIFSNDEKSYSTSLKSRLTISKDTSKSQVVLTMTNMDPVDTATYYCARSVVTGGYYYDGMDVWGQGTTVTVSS
# VL: B1 VL with D50E, D51S
# notes: IgG4 PE
# B28: 16H7 variant with light chain substitution V98G (antibody, V domains shown)
# VH: not shown
# VL: B1 VL with D51S, V98G
# B29: 16H7 variant with light chain substitution S55H (antibody, V domains shown)
# VH: not shown
# VL: B1 VL with D51S, S55H
# B30: 16H7 variant with light chain substitution S51G (antibody, V domains shown)
# VH: not shown
# VL: B1 VL with D51G
# B31: 16H7 variant with light chain substitution S55L (antibody, V domains shown)
# VH: not shown
# VL: B1 VL with D51S, S55L
# B32: Ab0180 (antibody, IgG4, V domains shown)
# VH: not shown
# VL: B1 VL with N25S, D51S
# notes: IgG4 PE
# What was measured:
# [1] = biological target: human FGFR1c/KLB receptor complex on iLite FGF21 Assay Ready Cells (human, UniProt P11362 22-822; Q86Z14 1-1044); test: cell-based or functional assay; as to Mean E max (%): reference of the scale not given here
# human beta-Klotho (KLB) [2] = biological target: T1, human beta-Klotho (KLB); test: BLI off-rate screening, mAb captured, KLB analyte;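 also: Off-rate taken from the dissociation phase, biosensors held in D-PBS with 0.1% BSA over 1800 s, antibody supernatants diluted to 25 µg/mL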
# human beta-Klotho (KLB) [3] = biological target: T2, human beta-Klotho (KLB); test: SPR
# [4] = biological target: human FGFR1c + KLB receptor complex on HEK293 iLite FGF21 reporter cells (human, UniProt P11362 22-822; Q86Z14 1-1044); test: cell-based or functional assay
# Sequence of human FGFR1c + KLB receptor complex on HEK293 iLite FGF21 reporter cells (P11362 22-822, chain 1 of 2): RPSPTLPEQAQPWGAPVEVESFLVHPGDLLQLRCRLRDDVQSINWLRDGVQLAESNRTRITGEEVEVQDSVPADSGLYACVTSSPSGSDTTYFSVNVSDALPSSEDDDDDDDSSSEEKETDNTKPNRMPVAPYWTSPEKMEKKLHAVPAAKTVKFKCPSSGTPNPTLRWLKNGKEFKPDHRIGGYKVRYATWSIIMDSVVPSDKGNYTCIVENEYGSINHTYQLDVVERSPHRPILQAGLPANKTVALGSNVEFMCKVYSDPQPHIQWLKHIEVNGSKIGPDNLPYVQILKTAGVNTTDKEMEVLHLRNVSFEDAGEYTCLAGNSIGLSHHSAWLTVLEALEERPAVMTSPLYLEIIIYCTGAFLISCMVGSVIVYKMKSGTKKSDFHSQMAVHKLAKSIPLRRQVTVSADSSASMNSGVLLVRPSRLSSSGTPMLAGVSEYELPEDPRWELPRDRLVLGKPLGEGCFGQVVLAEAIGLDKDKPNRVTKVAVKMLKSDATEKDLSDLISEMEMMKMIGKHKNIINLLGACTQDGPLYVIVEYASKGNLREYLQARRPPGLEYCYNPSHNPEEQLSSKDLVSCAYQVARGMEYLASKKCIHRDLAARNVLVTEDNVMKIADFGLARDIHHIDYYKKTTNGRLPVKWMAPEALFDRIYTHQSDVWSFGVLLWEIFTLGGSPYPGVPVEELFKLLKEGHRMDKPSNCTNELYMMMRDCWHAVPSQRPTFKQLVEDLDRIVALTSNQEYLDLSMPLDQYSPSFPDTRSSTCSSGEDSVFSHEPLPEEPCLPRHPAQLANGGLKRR
# Sequence of human FGFR1c + KLB receptor complex on HEK293 iLite FGF21 reporter cells (Q86Z14 whole entry, chain 2 of 2): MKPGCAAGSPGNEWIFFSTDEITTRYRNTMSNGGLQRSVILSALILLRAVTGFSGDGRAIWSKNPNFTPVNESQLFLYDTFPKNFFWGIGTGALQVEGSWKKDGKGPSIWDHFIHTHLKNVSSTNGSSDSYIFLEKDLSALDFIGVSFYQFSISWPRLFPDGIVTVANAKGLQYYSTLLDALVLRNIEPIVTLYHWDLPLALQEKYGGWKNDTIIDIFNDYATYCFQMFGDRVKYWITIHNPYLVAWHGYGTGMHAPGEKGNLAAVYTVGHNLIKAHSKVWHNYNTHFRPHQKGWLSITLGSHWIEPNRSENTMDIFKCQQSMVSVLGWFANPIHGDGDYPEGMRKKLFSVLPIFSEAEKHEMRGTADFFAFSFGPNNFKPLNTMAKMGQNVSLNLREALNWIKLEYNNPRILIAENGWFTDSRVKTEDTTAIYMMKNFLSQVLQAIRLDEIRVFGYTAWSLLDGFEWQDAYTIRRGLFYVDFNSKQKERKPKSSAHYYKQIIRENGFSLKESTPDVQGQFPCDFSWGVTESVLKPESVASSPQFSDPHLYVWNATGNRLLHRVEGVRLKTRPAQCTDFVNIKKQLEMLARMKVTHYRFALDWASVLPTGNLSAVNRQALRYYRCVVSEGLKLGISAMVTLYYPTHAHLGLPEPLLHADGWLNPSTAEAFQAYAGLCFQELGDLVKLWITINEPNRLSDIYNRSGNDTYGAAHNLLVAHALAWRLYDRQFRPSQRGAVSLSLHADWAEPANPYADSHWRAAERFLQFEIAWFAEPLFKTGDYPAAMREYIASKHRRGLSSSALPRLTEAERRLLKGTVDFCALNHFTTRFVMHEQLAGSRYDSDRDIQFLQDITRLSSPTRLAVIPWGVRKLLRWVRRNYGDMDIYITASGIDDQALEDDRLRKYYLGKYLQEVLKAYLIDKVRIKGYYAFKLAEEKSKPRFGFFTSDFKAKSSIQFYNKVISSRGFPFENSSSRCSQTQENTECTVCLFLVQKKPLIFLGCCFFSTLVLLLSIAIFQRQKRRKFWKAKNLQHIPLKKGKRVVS
# Sequence of human FGFR1c/KLB receptor complex on iLite FGF21 Assay Ready Cells (P11362 22-822, chain 1 of 2): as the sequence (P11362 22-822, chain 1 of 2) above
# Sequence of human FGFR1c/KLB receptor complex on iLite FGF21 Assay Ready Cells (Q86Z14 whole entry, chain 2 of 2): as the sequence (Q86Z14 whole entry, chain 2 of 2) above
Binder,Mean E max (%) [1],Mean EC50 [1],koff (human beta-Klotho (KLB) [2]),koff (human beta-Klotho (KLB) [3]),EC50 [4],Emax [4]
B1,97%,0.098 nM,3.7e-05 s⁻¹,,,
B2,110%,0.139 nM,2e-05 s⁻¹,,,
B3,106%,0.141 nM,3.8e-05 s⁻¹,,,
B4,100%,0.143 nM,4.9e-05 s⁻¹,,,
B5,99%,0.139 nM,4.6e-05 s⁻¹,,,
B6,,,,0.00084 s⁻¹,0.06 nM,2410%
B7,100%,0.109 nM,5.9e-05 s⁻¹,,,
B8,91%,0.244 nM,6.3e-05 s⁻¹,,,
B9,,,,0.000156 s⁻¹,0.04 nM,2780%
B10,104%,0.128 nM,3.5e-05 s⁻¹,,,
B11,110%,0.133 nM,1.3e-05 s⁻¹,,,
B12,113%,0.126 nM,1.8e-05 s⁻¹,,,
B13,97%,0.095 nM,2.4e-05 s⁻¹,,,
B14,100%,0.109 nM,1.3e-05 s⁻¹,,,
B15,99%,0.088 nM,3.1e-05 s⁻¹,,,
B16,103%,0.107 nM,1.8e-05 s⁻¹,,,

Binder,Mean E max (%) [1],Mean EC50 [1],koff (human beta-Klotho (KLB) [2]),koff (human beta-Klotho (KLB) [3]),EC50 [4],Emax [4]
B17,105%,0.121 nM,0.00013 s⁻¹,,,
B18,107%,0.108 nM,7.2e-05 s⁻¹,,,
B19,109%,0.146 nM,3.6e-05 s⁻¹,,,
B20,100%,0.131 nM,4.4e-05 s⁻¹,,,
B21,,,,0.000195 s⁻¹,0.05 nM,2370%
B22,,,,0.000577 s⁻¹,0.02 nM,2290%
B23,111%,0.141 nM,1.7e-05 s⁻¹,,,
B24,99%,0.109 nM,3.2e-05 s⁻¹,,,
B25,106%,0.111 nM,9e-05 s⁻¹,,,
B26,99%,0.099 nM,5.6e-05 s⁻¹,,,
B27,,,,0.000387 s⁻¹,0.06 nM,2760%
B28,105%,0.118 nM,1.1e-05 s⁻¹,,,
B29,111%,0.122 nM,4e-06 s⁻¹,,,
B30,104%,0.129 nM,0.0001 s⁻¹,,,
B31,97%,0.126 nM,8.4e-05 s⁻¹,,,
B32,,,,0.00024 s⁻¹,0.05 nM,2710%
